Substrate: Nc1nc(N[C@@H]2O[C@H](COP(=O)(O)O)[C@@H](O)[C@H]2O)c(NC=O)c(=O)[nH]1
Test: formamidase assay, fluorescence HPLC of derivatized product (DARoPP / formate)
Type: biochemical, Sinorhizobium meliloti
Settings: 50 mM TES pH 7.2, 10% glycerol, 0.25 mM DTT, 1 mM MgCl2, 30 °C, 8 min

B1: Sm-BrbF (SMc02977) (Sinorhizobium meliloti 1021) (protein)
chain: MSLPKPRWTDNSAALEPVERRDWIAVLPLGAHEQHGPHLPFETDRLIAAGIVERVIAALPQALPVTFLPVEPVGYSIEHMDVSGTRTLAYDEAIERWLGIAESLAGLGVRKFVMLNAHGGNSPLMTIVATEARIRFRMLAVATSWTRFGQPDGWISAKDKAVDIHGGDIETSVMLALHPDKVDMAKARAFPSRQGEFALSFKHLRAYGPHAFGWKMSDLNPDGVAGNAAAATAERGEALLAHAAKGIIELLEDVNAFDAGELD
notes: full ORF in pET-30 Ek/LIC, E. coli BL21; His tag cleaved with enterokinase, untagged
- Km: 152.44 ± 33.59 µM

Source: PMC9478397
